According to patent US10449259B2, “Enzyme-responsive peptide nanofiber compositions and uses thereof” (Cornell University, priority 2015, dated 2019):
Primed or numbered codes have the meaning given here. *: point of attachment. mPEG2000 = methoxypolyethylene glycol polymer of 2 kDa, conjugated at the peptide N-terminus; FITC = O=C1OC2(c3ccc(O)cc3Oc3cc(O)ccc32)c2ccc(NC(=S)*)cc21; FITC′ = fluorescein isothiocyanate label; mPEG2000(3) = 2 kDa mPEG at N-terminus; Cy5.5 = Cy5.5 fluorophore

Assays:
[1] = tested on: MDA-MB-468 tumors; assay: In vivo fluorescence monitoring of distribution after tail vein injection, MDA-MB-468 tumors; design: species or system nude mice; conditions: 0.5 nmol of fluorophore content, 48 hours post-injection
Description: Similar results were observed when the animals were injected with GSH-NFP nanofibers having a homogenous length of 400 nm. FIGS. 16A and 16B (white arrows).

[2] = target: T1, CathB (purified from bovine spleen) (Bos taurus, UniProt P07688); assay: Enzyme digestion study with CathB (HPLC, MALDI-TOF, TEM, fluorescence); format: biochemical; conditions: for fluorescence change of quenched nanofibers after CathB digestion: 0.1 μM peptide content, pH 4, 24 hours; for fluorescence change of quenched nanofibers after CathB digestion / CathB digestion, peptide fragments by HPLC: CathB 0.3 U; for CathB digestion, peptide fragments by HPLC: 50 μM peptide content, sodium acetate buffer pH 4, 24 hours; for morphological change in response to CathB digestion (TEM): 24 hour incubation with the enzyme
T1 construct: CathB (purified from bovine spleen); purchased EMD Millipore (Billerica, Mass.); host or cells: bovine spleen (tissue-purified)
Description: NFP1 and NFP2 nanofibers (50 μM of peptide content) were incubated with CathB (0.3 U) in sodium acetate buffer (50 μM; pH 4). Nanofibers incubated with buffer only were used as the negative controls. After 24 hours, the samples were taken out for TEM, rp-HPLC, and MALDI-TOF analysis.
Intact or digested NFP1 and NFP2 nanofibers (10 μM of peptide content) in buffer (20 μL) were transferred onto Formvar/carbon-coated 400 mesh copper grids (Electron Microscopy Sciences, Hatfield, Pa.). Excess nanofibers were blotted off using filter paper and the samples were stained with 0.5% (v/v) uranyl formate solution (20 μL). After drying at room temperature, the grids were examined under TEM (JEOL JEM-1400 LaB6 TEM operating at 120 Kv).

[3] = tested on: triple-negative breast cancer MDA-MB-468 cells; assay: CellTiter-Glo luminescent cell viability (cytotoxicity) assay, MDA-MB-468; format: cell-based, human; conditions: for toxicity of naked nanofibers: below a concentration of 1 μM; for IC50: 5 days of incubation, concentration according to DM1 content, mean ± SD, triplicate
Description: (§1) The cytotoxicity of drug-loaded NFP1 and NFP2 nanofibers was assessed using the CellTiter-Glo Luminescent Cell Viability Assay (Promega, Madison, Wis.) as previously described in Junttila et al., Breast Cancer Res. Treat. 128 (2), 347-356 (2011). Briefly, cells were seeded on a 96-well plate (2×10^3/well for MDA-MB-231 and MDA-MB-468 and 2×10^4/well for BT474) and were allowed to stabilize overnight. […] After 5 days of incubation, CellTiter-Glo reagent (100 μL) was added to each well. The generated oxyluciferin was quantified for emitted luminescence using a microplate reader (Tecan US Inc., Morrisville, N.C.). All experiments were performed in triplicate, and the results were presented as mean±standard deviation. Statistical analyses were performed using Graph Pad Prism 6.0 software. All data were normalized to the values obtained with the untreated control cells, and half maximal inhibitory concentrations (IC50) were calculated by fitting the obtained data to a sigmoidal curve.
(§2) The cytotoxicity of the DM1-loaded nanofibers was evaluated using various human HER2-positive breast cancer (BT474) and triple-negative breast cancer (MDA-MB-231 and MDA-MB-468) cell lines as ex vivo models. A luminescent cell viability assay was employed to determine the cell viability through quantification of the adenosine triphosphate (ATP) produced by metabolically active cells. This assay offered more accurate and reproducible results compared to the widely used MTS assay (data not shown). Because the cell killing of DM1 is slow, the assays were performed following the incubation of the tested samples for 5 days, as previously described in Junttila et al., Breast Cancer Res. Treat. 128 (2), 347-356 (2011).

[4] = tested on: triple-negative breast cancer MDA-MB-231 cells; assay: CellTiter-Glo luminescent cell viability (cytotoxicity) assay, MDA-MB-231; format: cell-based, human; conditions: for toxicity of naked nanofibers: below a concentration of 1 μM; for IC50: 5 days of incubation, concentration according to DM1 content, mean ± SD, triplicate
Description: as §1, §2

[5] = tested on: HER2-positive breast cancer (BT474) cells; assay: CellTiter-Glo luminescent cell viability (cytotoxicity) assay, BT474; format: cell-based, human; conditions: 5 days of incubation, concentration according to DM1 content, mean ± SD, triplicate
Description: Briefly, cells were seeded on a 96-well plate (2×10^3/well for MDA-MB-231 and MDA-MB-468 and 2×10^4/well for BT474) and were allowed to stabilize overnight. […] After 5 days of incubation, CellTiter-Glo reagent (100 μL) was added to each well. The generated oxyluciferin was quantified for emitted luminescence using a microplate reader (Tecan US Inc., Morrisville, N.C.). […] Statistical analyses were performed using Graph Pad Prism 6.0 software. All data were normalized to the values obtained with the untreated control cells, and half maximal inhibitory concentrations (IC50) were calculated by fitting the obtained data to a sigmoidal curve.
The cytotoxicity of the DM1-loaded nanofibers was evaluated using various human HER2-positive breast cancer (BT474) and triple-negative breast cancer (MDA-MB-231 and MDA-MB-468) cell lines as ex vivo models. A luminescent cell viability assay was employed to determine the cell viability through quantification of the adenosine triphosphate (ATP) produced by metabolically active cells. […] Because the cell killing of DM1 is slow, the assays were performed following the incubation of the tested samples for 5 days, as previously described in Junttila et al., Breast Cancer Res. Treat.

Cn1cnc(N)c2ncnc1-2 [3MA]
tumoral uptake relative to Cy5.5 [1]: increased tumoral uptake

mPEG2000 KLDLKLDLKLDLK-Cy5.5 ({mPEG2000(3)}-KLDLKLDLKLDLK-{Cy5.5}) [Cy5.5-NFP2, optically quenched nanofiber prepared using Cy5.5-conjugated peptide constructs only]
fluorescence change of quenched nanofibers after CathB digestion [2]: only slightly increased

FITC-NFP2: mPEG2000, self-assembling domain KLDLKLDLKLDLK and FITC fluorophore (mPEG2000-KLDLKLDLKLDLK(FITC)-NH2; not fully specified)
CathB digestion, peptide fragments by HPLC [2]: only one fragment
morphological change in response to CathB digestion (TEM) [2]: assembled into an interfibril network

NFP2: naked nanofiber of mPEG peptides with self-assembling domain KLDLKLDLKLDLK, no hexalysine motif (mPEG2000-KLDLKLDLKLDLK(FITC′)-NH2; also: mPEG, site not given here)
toxicity of naked nanofibers [3]: nontoxic
toxicity of naked nanofibers [4]: nontoxic

FITC-NFP1: mPEG2000, hexalysine motif, self-assembling domain KLDLKLDLKLDLK and FITC fluorophore (mPEG2000-KKKKKKKLDLKLDLKLDLK(FITC)-NH2; not fully specified)
CathB digestion, peptide fragments by HPLC [2]: multiple peptide fragments
morphological change in response to CathB digestion (TEM) [2]: disintegrated and became shorter in length

NFP1: naked nanofiber of mPEG peptides with hexalysine motif and self-assembling domain KLDLKLDLKLDLK (mPEG2000-KKKKKKKLDLKLDLKLDLK(FITC′)-NH2; not fully specified)
sensitivity to CathB digestion ([2]; compared to NFP2): increased sensitivity to CathB digestion
toxicity of naked nanofibers at high concentration ([3]; 10 μM): significant cell growth inhibition
toxicity of naked nanofibers [3]: nontoxic
toxicity of naked nanofibers at high concentration ([4]; 10 μM): significant cell growth inhibition
toxicity of naked nanofibers [4]: nontoxic

T-DM1 [reference compound]
IC50 [3]: 65.2 ± 4.4 nM
IC50 [4]: 68.9 ± 3.8 nM

COc1cc2cc(c1Cl)N(C)C(=O)C[C@H](OC(=O)[C@H](C)N(C)C(=O)CCS)[C@]1(C)O[C@H]1[C@H](C)[C@@H]1C[C@@](O)(NC(=O)O1)[C@H](OC)/C=C/C=C(\C)C2 [DM1, N2′-deacetyl-N2′-(3-mercapto-1-oxopropyl)-maytansine, reference compound]
IC50 [5]: 68.1 ± 5 nM
IC50 [3]: 21.9 ± 4.1 nM
IC50 [4]: 35.4 ± 4.2 nM

mPEG2000-KKKKKKKLDLKLDLKLDLK-Cy5.5 (mPEG2000-KKKKKKKLDLKLDLKLDLK-{Cy5.5}) [Cy5.5-NFP1, optically quenched nanofiber prepared using Cy5.5-conjugated peptide constructs only]
fluorescence change of quenched nanofibers after CathB digestion [2]: recovery of the fluorescence signal
